Data reported in paper PMC11615311 (Nature Communications, 2024).

Columns and labels:
[1] = target: UAF1-USP1 complex (purified) (UniProt Q8TAF3 1-677; O94782 1-785); assay: pull-down
[2] = target: BAZ1B-SMARCA5 complex (purified) (human | , UniProt Q9UIG0 1-1483; O60264 1-1052); assay: pull-down
Sequence of BAZ1B-SMARCA5 complex (purified) (Q9UIG0 whole entry, chain 1 of 2): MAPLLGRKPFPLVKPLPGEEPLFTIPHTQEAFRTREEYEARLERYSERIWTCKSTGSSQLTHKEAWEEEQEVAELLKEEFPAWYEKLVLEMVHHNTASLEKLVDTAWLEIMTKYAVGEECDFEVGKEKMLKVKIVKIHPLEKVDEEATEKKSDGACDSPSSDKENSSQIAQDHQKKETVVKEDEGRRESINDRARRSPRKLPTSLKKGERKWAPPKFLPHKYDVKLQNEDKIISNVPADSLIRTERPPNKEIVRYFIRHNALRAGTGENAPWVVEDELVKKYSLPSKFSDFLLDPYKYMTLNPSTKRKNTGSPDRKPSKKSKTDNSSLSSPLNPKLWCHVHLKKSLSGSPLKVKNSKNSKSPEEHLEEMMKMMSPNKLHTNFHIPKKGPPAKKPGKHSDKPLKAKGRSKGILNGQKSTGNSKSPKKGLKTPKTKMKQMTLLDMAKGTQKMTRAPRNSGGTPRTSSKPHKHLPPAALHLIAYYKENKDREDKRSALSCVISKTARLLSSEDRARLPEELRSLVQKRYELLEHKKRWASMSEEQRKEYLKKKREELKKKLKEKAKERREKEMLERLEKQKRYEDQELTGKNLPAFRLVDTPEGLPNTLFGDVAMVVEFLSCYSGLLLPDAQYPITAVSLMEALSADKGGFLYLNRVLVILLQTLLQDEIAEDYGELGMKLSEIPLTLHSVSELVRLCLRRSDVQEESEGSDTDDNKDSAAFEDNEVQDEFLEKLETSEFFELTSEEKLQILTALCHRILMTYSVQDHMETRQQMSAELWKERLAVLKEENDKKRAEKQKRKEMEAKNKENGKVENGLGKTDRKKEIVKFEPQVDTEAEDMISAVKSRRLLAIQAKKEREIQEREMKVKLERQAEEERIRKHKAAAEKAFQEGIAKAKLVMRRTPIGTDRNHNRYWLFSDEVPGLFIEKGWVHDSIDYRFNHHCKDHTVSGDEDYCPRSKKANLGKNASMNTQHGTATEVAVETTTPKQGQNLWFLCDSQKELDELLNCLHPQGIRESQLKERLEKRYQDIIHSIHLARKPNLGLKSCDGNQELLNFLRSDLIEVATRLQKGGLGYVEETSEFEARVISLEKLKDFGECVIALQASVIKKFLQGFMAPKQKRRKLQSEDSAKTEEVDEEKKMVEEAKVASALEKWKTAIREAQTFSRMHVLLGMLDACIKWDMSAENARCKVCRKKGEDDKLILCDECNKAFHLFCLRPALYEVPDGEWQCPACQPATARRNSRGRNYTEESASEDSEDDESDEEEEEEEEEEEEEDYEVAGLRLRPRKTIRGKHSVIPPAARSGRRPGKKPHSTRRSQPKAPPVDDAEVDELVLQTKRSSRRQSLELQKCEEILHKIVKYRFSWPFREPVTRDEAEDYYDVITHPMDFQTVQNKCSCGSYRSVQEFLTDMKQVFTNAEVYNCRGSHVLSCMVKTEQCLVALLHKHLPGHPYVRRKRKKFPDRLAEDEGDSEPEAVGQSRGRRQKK
Sequence of BAZ1B-SMARCA5 complex (purified) (O60264 whole entry, chain 2 of 2): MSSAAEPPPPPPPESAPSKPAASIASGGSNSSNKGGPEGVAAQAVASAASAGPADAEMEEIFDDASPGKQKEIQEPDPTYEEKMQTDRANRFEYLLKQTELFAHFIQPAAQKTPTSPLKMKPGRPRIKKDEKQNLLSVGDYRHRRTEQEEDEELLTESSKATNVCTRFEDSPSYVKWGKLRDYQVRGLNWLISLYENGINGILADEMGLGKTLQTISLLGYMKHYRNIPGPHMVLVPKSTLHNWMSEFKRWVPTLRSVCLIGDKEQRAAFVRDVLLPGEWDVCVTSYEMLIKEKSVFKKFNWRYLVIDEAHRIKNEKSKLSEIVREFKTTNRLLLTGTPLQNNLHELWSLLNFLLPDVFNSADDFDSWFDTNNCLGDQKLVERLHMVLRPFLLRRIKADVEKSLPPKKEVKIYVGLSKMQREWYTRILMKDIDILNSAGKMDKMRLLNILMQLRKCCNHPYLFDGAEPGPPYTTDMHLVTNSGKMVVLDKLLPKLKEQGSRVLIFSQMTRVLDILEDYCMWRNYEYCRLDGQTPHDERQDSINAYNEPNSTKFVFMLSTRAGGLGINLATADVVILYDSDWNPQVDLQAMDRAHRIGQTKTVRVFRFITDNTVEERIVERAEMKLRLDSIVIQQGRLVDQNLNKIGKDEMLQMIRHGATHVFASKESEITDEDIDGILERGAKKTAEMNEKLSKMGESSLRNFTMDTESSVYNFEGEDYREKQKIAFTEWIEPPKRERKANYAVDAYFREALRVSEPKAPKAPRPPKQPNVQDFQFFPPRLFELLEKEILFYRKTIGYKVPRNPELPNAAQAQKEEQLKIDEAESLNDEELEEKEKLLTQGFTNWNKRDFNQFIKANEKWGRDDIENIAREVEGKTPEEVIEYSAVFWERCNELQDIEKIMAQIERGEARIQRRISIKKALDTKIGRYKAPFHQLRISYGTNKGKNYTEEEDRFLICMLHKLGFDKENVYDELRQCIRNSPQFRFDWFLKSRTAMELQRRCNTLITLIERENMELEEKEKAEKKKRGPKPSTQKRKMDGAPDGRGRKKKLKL

Sequence of UAF1-USP1 complex (purified) (Q8TAF3 whole entry, chain 1 of 2): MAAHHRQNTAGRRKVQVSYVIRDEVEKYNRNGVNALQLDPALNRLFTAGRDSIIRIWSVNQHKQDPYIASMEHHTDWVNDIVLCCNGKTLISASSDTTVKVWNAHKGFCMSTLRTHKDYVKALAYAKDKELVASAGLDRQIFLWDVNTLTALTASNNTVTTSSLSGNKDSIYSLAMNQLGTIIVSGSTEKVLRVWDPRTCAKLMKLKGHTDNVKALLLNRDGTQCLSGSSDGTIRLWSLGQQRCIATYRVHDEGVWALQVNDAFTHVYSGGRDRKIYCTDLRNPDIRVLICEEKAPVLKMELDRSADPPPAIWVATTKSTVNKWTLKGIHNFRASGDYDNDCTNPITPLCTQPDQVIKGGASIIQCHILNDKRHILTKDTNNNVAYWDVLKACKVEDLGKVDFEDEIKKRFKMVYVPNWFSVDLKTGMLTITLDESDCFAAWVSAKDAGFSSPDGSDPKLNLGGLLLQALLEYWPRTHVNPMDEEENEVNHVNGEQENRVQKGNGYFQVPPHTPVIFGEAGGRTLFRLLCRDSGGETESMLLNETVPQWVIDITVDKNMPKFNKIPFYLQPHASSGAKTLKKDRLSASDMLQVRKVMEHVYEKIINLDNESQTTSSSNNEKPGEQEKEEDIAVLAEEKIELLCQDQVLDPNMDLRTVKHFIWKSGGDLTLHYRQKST
Sequence of UAF1-USP1 complex (purified) (O94782 whole entry, chain 2 of 2): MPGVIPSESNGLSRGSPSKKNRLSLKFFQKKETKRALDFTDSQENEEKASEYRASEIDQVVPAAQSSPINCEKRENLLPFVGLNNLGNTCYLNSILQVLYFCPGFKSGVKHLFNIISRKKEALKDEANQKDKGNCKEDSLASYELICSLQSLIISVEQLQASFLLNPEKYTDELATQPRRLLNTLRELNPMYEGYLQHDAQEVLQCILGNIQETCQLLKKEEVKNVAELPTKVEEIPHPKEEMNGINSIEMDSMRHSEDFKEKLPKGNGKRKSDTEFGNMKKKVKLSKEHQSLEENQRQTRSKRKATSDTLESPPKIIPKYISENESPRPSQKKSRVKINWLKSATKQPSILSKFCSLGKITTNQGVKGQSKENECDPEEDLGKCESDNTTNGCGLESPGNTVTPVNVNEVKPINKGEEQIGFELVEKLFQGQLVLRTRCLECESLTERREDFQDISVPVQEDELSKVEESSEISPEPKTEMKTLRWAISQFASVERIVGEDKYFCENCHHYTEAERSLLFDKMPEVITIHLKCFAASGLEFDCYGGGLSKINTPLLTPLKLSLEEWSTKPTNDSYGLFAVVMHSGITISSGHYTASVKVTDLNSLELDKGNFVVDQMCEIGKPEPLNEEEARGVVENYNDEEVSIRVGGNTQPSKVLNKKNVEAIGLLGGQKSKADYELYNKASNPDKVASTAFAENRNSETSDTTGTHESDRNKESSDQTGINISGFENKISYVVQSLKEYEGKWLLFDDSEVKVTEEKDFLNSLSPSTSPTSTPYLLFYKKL

binding result [1]: binds
binding result [2]: binds
B1: MBP-tagged ATAD5 (1–603) (domain or fragment, human, UniProt Q96QE3 1-603, looked up)
chain: MVGVLAMAAAAAPPPVKDCEIEPCKKRKKDDDTSTCKTITKYLSPLGKTRDRVFAPPKPSNILDYFRKTSPTNEKTQLGKECKIKSPESVPVDSNKDCTTPLEMFSNVEFKKKRKRVNLSHQLNNIKTENEAPIEISSDDSKEDYSLNNDFVESSTSVLRYKKQVEVLAENIQDTKSQPNTMTSLQNSKKVNPKQGTTKNDFKKLRKRKCRDVVDLSESLPLAEELNLLKKDGKDTKQMENTTSHANSRDNVTEAAQLNDSIITVSYEEFLKSHKENKVEEIPDSTMSICVPSETVDEIVKSGYISESENSEISQQVRFKTVTVLAQVHPIPPKKTGKIPRIFLKQKQFEMENSLSDPENEQTVQKRKSNVVIQEEELELAVLEAGSSEAVKPKCTLEERQQFMKAFRQPASDALKNGVKKSSDKQKDLNEKCLYEVGRDDNSKKIMENSGIQMVSKNGNLQLHTDKGSFLKEKNKKLKKKNKKTLDTGAIPGKNREGNTQKKETTFFLKEKQYQNRMSLRQRKTEFFKSSTLFNNESLVYEDIANDDLLKVSSLCNNNKLSRKTSIPVKDIKLTQSKAESEASLLNVSTPKSTRRSGRISST
